The series has as its target TcMYB8 (Tanacetum cinerariifolium (clone W99), UniProt A0A9Y1M041 1-217). Nature of the series: EMSA; labeled probe 10 uM; EMSA with 10 uM FAM probe; buffer, salt, pH and temperature not stated. To be noted: protein: recombinant; tags: 6xHN, C-terminal (pET6HN-C vector); label: 5' 6-FAM; blunt.

Sequence of TcMYB8 (A0A9Y1M041 entry or part of it): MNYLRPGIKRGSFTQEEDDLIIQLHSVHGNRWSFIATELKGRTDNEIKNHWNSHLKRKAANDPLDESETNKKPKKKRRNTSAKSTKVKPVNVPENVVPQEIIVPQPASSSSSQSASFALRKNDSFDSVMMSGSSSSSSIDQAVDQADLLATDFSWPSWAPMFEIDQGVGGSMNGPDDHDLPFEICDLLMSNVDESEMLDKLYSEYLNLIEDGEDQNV

B1: Probe_proCHS (dsDNA)
DNA 1: TTTGAAGGCAAGTGATGTAAAGTGCTAAGTGTTAAGTCAATGATTATAT
DNA 2: ATATAATCATTGACTTAACACTTAGCACTTTACATCACTTGCCTTCAAA
Take B1: the binding result is “binds”.

B2: Probe_proGLIP (dsDNA)
DNA 1: CCTGACAGTTGCTATTTAGTGCTGTCTACTTGTTTAGTTGTGGAGCAAATGACT
DNA 2: AGTCATTTGCTCCACAACTAAACAAGTAGACAGCACTAAATAGCAACTGTCAGG
Take B2: the binding result is reported as “binds”.

The values are drawn from PMC9602545, “TcMYB8, a R3-MYB Transcription Factor, Positively Regulates Pyrethrin Biosynthesis in Tanacetum cinerariifolium”.
